Target: PDGF-BB (platelet-derived growth factor BB) (Homo sapiens) (UniProt P01127)
Test: filter
[1] = all P are NapdU, rest DNA, SB18T, 37 C
[2] = all Z are BndU, rest DNA, SB18T, 37 C
[3] = Tyr, MBn, FBn, Ib, 2Nap, Pe, Th, NE dU, Heg, 2'-OMe
[4] = Trp, Ib, NE, Th, Pe, MBn dU, Heg, 2'-OMe

Chain of PDGF-BB (platelet-derived growth factor BB) (Homo sapiens) (P01127 82-190): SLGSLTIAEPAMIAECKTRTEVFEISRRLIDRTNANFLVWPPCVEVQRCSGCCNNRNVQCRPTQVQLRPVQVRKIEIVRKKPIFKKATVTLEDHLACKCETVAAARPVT

## CGACAGCATGTATGCACATCTAG [5169-4_24]
NapdU at P
  Kd: 0.021 nM

## CGACAGCATGTATGCACATCTAGA [5169-4_23]
NapdU at P
  Kd: 0.02 nM

## CGACAGCATGTATGCACATCTAGAG [5169-4_22]
NapdU at P
  Kd: 0.015 nM

## CGACAGCATGTATGCACATCTAGAGG [5169-4_21]
NapdU at P
  Kd: 0.021 nM

## CGACAGCATGTATGCACATCTAGAGGC [5169-4_20]
NapdU at P
  Kd: 0.014 nM

## CGACAGCATGTATGCACATCTAGAGGCT [5169-4_19]
[1]
  Kd: 0.012 nM

## CGACAGCATGTATGCACATCTAGAGGCTA [5169-4_18]
NapdU at P
  Kd: 0.026 nM

## CGACAGCATGTATGCACATCTAGAGGCTACCCAGT [5169-4_17]
NapdU at P
  Kd: 0.02 nM

## CGACAGCATGTATGCACATCTAGAGGCTACCCAGTG [5169-4_16]
NapdU at P
  Kd: 0.016 nM

## CGACAGCATGTATGCACATCTAGAGGCTACCCAGTGA [5169-4_15]
NapdU at P
  Kd: 0.019 nM

## CGACAGCATGTATGCACATCTAGAGGCTACCCAGTGAA [5169-4_12]
NapdU at P
  Kd: 0.064 nM

## CGACAGCATGTATGCACATCTAGAGGCTACCCAGTGAATGAGGA [5169-4_5]
NapdU at P
  Kd: 0.031 nM

## CGACAGCATGTATGCACATT [5169-4_78]
NapdU at P, C3 spacer at 20
  Kd: 0.28 nM

## CGACAGCATGTATGCACTCT [5169-4_76]
C3 spacer at 18, NapdU at 9,11,13,19,21, C3 spacer walk
  Kd: 1.3 nM

## CGACAGCATGTATGCCATCT [5169-4_74]
NapdU at P, C3 spacer at 16
  Kd: 0.37 nM

## CGACAGCTGTATGCACATCT [5169-4_66]
C3 spacer at 8, NapdU at 9,11,13,19,21, C3 spacer walk
  Kd: 8.5 nM

## CGACGCATGTATGCACATCT [5169-4_63]
NapdU at P, C3 spacer at 5
  Kd: 29 nM

## CGACTACGTTACACGCGTTTATAGCGTCAACCCGAGTGAACA [4149-8_14]
[2]
  Kd: 13 nM

## CGTTACACGCGTTTATAGCGTCAACCCGAGTGAACA [4149-8_17]
Bn-dU
  Kd: > 10 nM

## CTCTTACGACTACGTTACACGCGTTTATAGCGTC [4149-8_27]
[2]
  Kd: 0.09 nM

## CTCTTACGACTACGTTACACGCGTTTATAGCGTCAACCCGAGTGAACA [4149-8_11]
[2]
  Kd: 0.03 nM

## CTGCCTCGACAGCATGTATGCACATCTAGAGGCTA [5169-4_11]
NapdU at P
  Kd: 0.6 nM

## CTGCCTCGACAGCATGTATGCACATCTAGAGGCTACCC [5169-4_10]
NapdU at P
  Kd: 0.63 nM

## CTGCCTCGACAGCATGTATGCACATCTAGAGGCTACCCAGT [5169-4_9]
[1]
  Kd: 0.72 nM

## CTGCCTCGACAGCATGTATGCACATCTAGAGGCTACCCAGTGAA [5169-4_8]
NapdU at P
  Kd: 0.036 nM

## CTGCCTCGACAGCATGTATGCACATCTAGAGGCTACCCAGTGAATGA [5169-4_7]
NapdU at P
  Kd: 0.014 nM

## CTGCCTCGACAGCATGTATGCACATCTAGAGGCTACCCAGTGAATGAGGA [5169-4_3]
[1]
  Kd: 0.029 nM

## CTTACGACTACGTTACACGCGTTTA [4149-8_35]
Bn-dU
  Kd: > 10 nM

## CTTACGACTACGTTACACGCGTTTAT [4149-8_34]
Bn-dU
  Kd: > 10 nM

## CTTACGACTACGTTACACGCGTTTATAG [4149-8_32]
[2]
  Kd: 6 nM

## CTTACGACTACGTTACACGCGTTTATAGC [4149-8_31]
[2]
  Kd: 0.3 nM

## CTTACGACTACGTTACACGCGTTTATAGCG [4149-8_30]
[2]
  Kd: 0.07 nM

## CTTACGACTACGTTACACGCGTTTATAGCGT [4149-8_29]
[2]
  Kd: 0.07 nM

## CTTACGACTACGTTACACGCGTTTATAGCGTCAACCCGA [4149-8_26]
[2]
  Kd: 0.08 nM

## CTTACGACTACGTTACACGCGTTTATAGCGTCAACCCGAGTGAACA [4149-8_12]
[2]
  Kd: 0.04 nM

## E10030 (Fovista)
comparator
  Kd: 0.047 nM

## GACAGCATGTATGCACATCT [5169-4_30]
[1]
  Kd: 0.062 nM

## GACAGCATGTATGCACATCT [5169-4_59]
C3 spacer at 1, NapdU at 9,11,13,19,21, C3 spacer walk
  Kd: 0.053 nM

## GACAGCATGTATGCACATCTA [5169-4_29]
NapdU at P
  Kd: 0.062 nM

## GACAGCATGTATGCACATCTAG [5169-4_28]
NapdU at P
  Kd: 0.048 nM

## GACAGCATGTATGCACATCTAGA [5169-4_27]
NapdU at P
  Kd: 0.062 nM

## GACAGCATGTATGCACATCTAGAG [5169-4_32]
NapdU at P
  Kd: 0.053 nM

## GACAGCATGTATGCACATCTAGAGGCTACCCAGTGAA [5169-4_13]
NapdU at P
  Kd: 0.027 nM

## TACGACTACGTTACACGCGTTTATAGCG [4149-8_65]
Bn-dU, C3 at 2
  Kd: > 10 nM

## TACGACTACGTTACACGCGTTTATAGCGTCAACCCGAGTGAACA [4149-8_13]
[2]
  Kd: 0.8 nM

## TACGTTACACGCGTTTATAGCGTCAACCCGAGTGAACA [4149-8_16]
[2]
  Kd: 22 nM

## TTACACGCGTTTATAGCGTCAACCCGAGTGAACA [4149-8_18]
[2]
  Kd: 13 nM

## TTACGACTACGTACACGCGTTTATAGCG [4149-8_75]
Bn-dU, C3 at 12
  Kd: > 10 nM

## TTACGACTACGTACACGCGTTTATAGCG [4149-8_76]
Bn-dU, C3 at 13
  Kd: > 10 nM

## TTACGACTACGTTACACCGTTTATAGCG [4149-8_81]
Bn-dU, C3 at 18
  Kd: > 10 nM

## TTACGACTACGTTACACGCGTTATAGCG [4149-8_84]
Bn-dU, C3 at 21
  Kd: > 10 nM

## TTACGACTACGTTACACGCGTTATAGCG [4149-8_85]
Bn-dU, C3 at 22
  Kd: > 10 nM

## TTACGACTACGTTACACGCGTTATAGCG [4149-8_86]
Bn-dU, C3 at 23
  Kd: > 10 nM

## TTACGACTACGTTACACGCGTTTA [4149-8_43]
Bn-dU
  Kd: > 10 nM

## TTACGACTACGTTACACGCGTTTAAGCG [4149-8_88]
Bn-dU, C3 at 25
  Kd: > 10 nM

## TTACGACTACGTTACACGCGTTTAT [4149-8_42]
Bn-dU
  Kd: > 10 nM

## TTACGACTACGTTACACGCGTTTATACG [4149-8_90]
Bn-dU, C3 at 27
  Kd: > 10 nM

## TTACGACTACGTTACACGCGTTTATAG [4149-8_40]
BndU at 1,2,8,12,13,21,22,23,25, rest DNA, SB18T, 37 C
  Kd: 1.5 nM

## TTACGACTACGTTACACGCGTTTATAGCG [4149-8_38]
BndU at 1,2,8,12,13,21,22,23,25, rest DNA, SB18T, 37 C, text p191 gives 20 pM, Table 1a 30 pM
  Kd: 0.05 nM

## TTACGACTACGTTACACGCGTTTATAGCG [4149-8_104]
Bn-dU, 2'-OMe U2
  Kd: > 10 nM

## TTACGACTACGTTACACGCGTTTATAGCG [4149-8_107]
Bn-dU, 2'-OMe U13
  Kd: > 10 nM

## TTACGACTACGTTACACGCGTTTATAGCG [4149-8_108]
Bn-dU, 2'-OMe U21
  Kd: > 10 nM

## TTACGACTACGTTACACGCGTTTATAGCG [4149-8_109]
Bn-dU, 2'-OMe U22
  Kd: > 10 nM

## TTACGACTACGTTACACGCGTTTATAGCG [4149-8_111]
Bn-dU, Nap-dU1, 2'-OMe U25
  Kd: > 10 nM

## TTACGACTACGTTACACGCGTTTATAGCGT [4149-8_37]
[2]
  Kd: 0.04 nM

## TTACGACTACGTTACACGCGTTTATGCG [4149-8_89]
Bn-dU, C3 at 26
  Kd: > 10 nM

## TTACGACTACGTTACACGCTTTATAGCG [4149-8_83]
Bn-dU, C3 at 20
  Kd: > 10 nM

## TTACGACTACGTTACACGGTTTATAGCG [4149-8_82]
Bn-dU, C3 at 19
  Kd: > 10 nM

## TTACGACTACGTTCACGCGTTTATAGCG [4149-8_77]
Bn-dU, C3 at 14
  Kd: > 10 nM

## TTACGACTACTTACACGCGTTTATAGCG [4149-8_74]
Bn-dU, C3 at 11
  Kd: > 10 nM

## TTACGCCGTTACACGCGTTTATAGCG [4149-8_102]
Bn-dU, C3 linkers, 2'-OMe
  Kd: > 10 nM

## TTACGTTACACGCGTTTATAGCG [4149-8_127]
Bn-dU, Nap-dU, Heg, 2'-OMe U as printed
  Kd: > 10 nM

## TTACGTTACACGCGTTTATAGCG [4149-8_129]
Bn-dU, Nap-dU, Heg, 2'-OMe
  Kd: > 10 nM

## TTACGTTACACGCGTTTATAGCG [4149-8_134]
Bn-dU
  Kd: > 10 nM

## TTACGTTACACGCGTTTATAGCG [4149-8_178]
Bn-dU, Trp-dU8, Heg5, 2'-OMe A3, A11, A21, G24
  Kd: > 10 nM

## TTACGTTACACGCGTTTATAGCG [4149-8_179]
Bn-dU, Trp-dU16, Heg5, 2'-OMe A3, A11, A21, G24
  Kd: > 10 nM

## TTACGTTACACGCGTTTATAGCG [4149-8_180]
Bn-dU, Trp-dU17, Heg5, 2'-OMe A3, A11, A21, G24
  Kd: > 10 nM

## TTACGTTACACGCGTTTATAGCG [4149-8_186]
Bn-dU, 2Nap-dU8, Heg5, 2'-OMe A3, A11, A21, G24
  Kd: > 10 nM

## TTACGTTACACGCGTTTATAGCG [4149-8_196]
Bn-dU, 2NE-dU17, Heg5, 2'-OMe A3, A11, A21, G24
  Kd: > 10 nM

## TTACGTTACACGCGTTTATAGCG [4149-8_244]
Bn-dU, Heg5, 2'-OMe A3, A9, A11, A21, G24
  Kd: > 10 nM

## TTACGTTACACGCGTTTATAGCG [4149-8_250]
[3]
  Kd: > 10 nM

## TTACGTTACACGCGTTTATAGCG [4149-8_251]
[3]
  Kd: > 10 nM

## TTACGTTACACGCGTTTATAGCG [4149-8_252]
[4]
  Kd: > 10 nM

## TTACGTTACACGCGTTTATAGCG [4149-8_253]
[4]
  Kd: > 10 nM

## TTACGTTACACGCGTTTATAGCG [4149-8_258]
Bn-dU, 2'-OMe U7, Ib-dU8, Heg5, 2'-OMe A3, A11, A21, G24
  Kd: > 10 nM

## TTACGTTACACGCGTTTATAGCG [4149-8_276]
Bn-dU, FBn-dU7, Ib-dU8, Pe-dU17, Th-dU18, Heg5, 2'-OMe A3, A11, A21, G24
  Kd: > 10 nM

## TTACGTTACACGCGTTTATAGCG [4149-8_277]
Bn-dU, Tyr-dU1, Ib-dU8, Pe-dU17, Th-dU18, Heg5, 2'-OMe A3, A11, A21, G24
  Kd: > 10 nM

## TTACGTTACACGCGTTTATAGCG [4149-8_278]
Bn-dU, Tyr-dU1, FBn-dU7, Ib-dU8, 2Nap-dU16, Pe-dU17, Th-dU18, Heg5, 2'-OMe A3, A11, A21, G24
  Kd: > 10 nM

## TTACGTTACACGCGTTTATAGCG [4149-8_305]
Bn-dU, 2'-OMe Bn-U1, Heg5, 2'-OMe A3, A11, A21, G24
  Kd: > 10 nM

## TTACGTTACACGCGTTTATAGCG [4149-8_306]
Bn-dU, 2'-OMe Bn-U2, Heg5, 2'-OMe A3, A11, A21, G24
  Kd: > 10 nM

## TTACGTTACACGCGTTTATAGCG [4149-8_309]
Bn-dU, 2'-OMe Bn-U16, Heg5, 2'-OMe A3, A11, A21, G24
  Kd: > 10 nM

## TTACGTTACACGCGTTTATAGCG [4149-8_310]
Bn-dU, 2'-OMe Bn-U17, Heg5, 2'-OMe A3, A11, A21, G24
  Kd: > 10 nM
